Measured values as given in PMC7615342.

How the values were obtained:
[1] = Flow cytometry, surface versus total PD-1 staining; conditions: glycan changed form; control: sgNT Tregs
[2] = Flow cytometry, PD-1+ frequency and MFI, ex vivo Tregs; conditions: glycan changed form; control: DMSO-treated Tregs

B1: PD-1: sgSlc35c1 (protein)
parent chain: MWVRQVPWSFTWAVLQLSWQSGWLLEVPNGPWRSLTFYPAWLTVSEGANATFTCSLSNWSEDLMLNWNRLSPSNQTEKQAAFCNGLSQPVQDARFQIIQLPNRHDFHMNILDTRRNDSGIYLCGAISLHPKAKIEESPGAELVVTERILETSTRYPSPSPKPEGRFQGMVIGIMSALVGIPVLLLLAWALAVFCSTSMSEARGAGSKDDTLKEEPSAAPVPSVAYEELDFQGREKTPELPTACVHTEYATIVFTEGLGASAMGRRGSADGLQGPRPPRHEDGHCSWPL
Question: For B1, which localisation_or_trafficking [1] is on record?
Answer: decreases

B2: PD-1: 2FF 100 μM, 6 days (protein)
parent chain: B1 parent chain
Question: Which expression_or_secretion [2] does the source give for B2 here?
Answer: decreases
